Values quoted from earlier work as cited in patent publication US11866502B2, “Anti-FGFR2 antibodies and methods of use thereof” (Regeneron Pharmaceuticals, Inc., priority 2020, dated 2024).

Test system: xenograft models
Settings: several xenograft models; cited from earlier work

B1: Aprutumab-TTC: anti-FGFR2 antibody, a chelator moiety covalently conjugated to the antibody, and the alpha particle-emitting radionuclide thorium-227 (conjugate, chains of the INN, looked up)
VH: EVQLLESGGGLVQPGGSLRLSCAASGFTFSSYAMSWVRQAPGKGLEWVSAISGSGTSTYYADSVKGRFTISRDNSKNTLYLQMNSLRAEDTAVYYCARVRYNWNHGDWFDPWGQGTLVTVSS
VL: QSVLTQPPSASGTPGQRVTISCSGSSSNIGNNYVSWYQQLPGTAPKLLIYENYNRPAGVPDRFSGSKSGTSASLAISGLRSEDEADYYCSSWDDSLNYWVFGGGTKLTVL
modifications: chelator conjugate with thorium-227
- tumor growth in xenograft models: inhibited tumor growth
